T1: Pot1pC (198-339 V199D) (Schizosaccharomyces pombe, UniProt O13988 198-339, V199D)
T1 sequence: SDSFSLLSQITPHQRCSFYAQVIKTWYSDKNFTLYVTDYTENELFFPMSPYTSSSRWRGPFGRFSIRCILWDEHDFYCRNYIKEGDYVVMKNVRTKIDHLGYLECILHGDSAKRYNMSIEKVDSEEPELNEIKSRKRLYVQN

B1: G2C (ssDNA)
DNA: GCTTACGGT
B2: 9mer (ssDNA)
DNA: GGTTACGGT
B3: A5T (ssDNA)
DNA: GGTTTCGGT
B4: C6G (ssDNA)
DNA: GGTTAGGGT
B5: T4A (ssDNA)
DNA: GGTAACGGT
B6: G8C (ssDNA)
DNA: GGTTACGCT
B7: T3A (ssDNA)
DNA: GGATACGGT

What follows are binders tested against T1, Pot1pC (198-339 V199D) (assay: X-ray crystal structure).
B1: binds.

These binders were tested against T1, Pot1pC (198-339 V199D) (assay: ITC).
B2 showed a Kd of 24 nM.
B3 gave a Kd of 63 nM.
Work on B4 yielded a Kd of 6 nM.
In the case of B5, the Kd is reported as 21 nM.
With B6 the Kd was 22 nM.
For B7, the Kd was 37 nM.
